In IntAct's records for PubMed 17803912:

B1: Lymphocyte antigen 96 (Homo sapiens), Q9Y6Y9 (parent)
chain: MLPFLFFSTLFSSIFTEAQKQYWVCNSSDASISYTYCDKMQYPISINVNPCIELKRSKGLLHIFYIPRRDLKQLYFNLYITVNTMNLPKRKEVICRGSDDDYSFCRALKGETVNTTISFSFKGIKFSKGKYKCVVEAISGSPEEMLFCLEFVILHQPNSN

Variants of: B1
Conditions: with tlr4_human TLR4, O00206
Chain of tlr4_human TLR4, O00206 (O00206 whole entry): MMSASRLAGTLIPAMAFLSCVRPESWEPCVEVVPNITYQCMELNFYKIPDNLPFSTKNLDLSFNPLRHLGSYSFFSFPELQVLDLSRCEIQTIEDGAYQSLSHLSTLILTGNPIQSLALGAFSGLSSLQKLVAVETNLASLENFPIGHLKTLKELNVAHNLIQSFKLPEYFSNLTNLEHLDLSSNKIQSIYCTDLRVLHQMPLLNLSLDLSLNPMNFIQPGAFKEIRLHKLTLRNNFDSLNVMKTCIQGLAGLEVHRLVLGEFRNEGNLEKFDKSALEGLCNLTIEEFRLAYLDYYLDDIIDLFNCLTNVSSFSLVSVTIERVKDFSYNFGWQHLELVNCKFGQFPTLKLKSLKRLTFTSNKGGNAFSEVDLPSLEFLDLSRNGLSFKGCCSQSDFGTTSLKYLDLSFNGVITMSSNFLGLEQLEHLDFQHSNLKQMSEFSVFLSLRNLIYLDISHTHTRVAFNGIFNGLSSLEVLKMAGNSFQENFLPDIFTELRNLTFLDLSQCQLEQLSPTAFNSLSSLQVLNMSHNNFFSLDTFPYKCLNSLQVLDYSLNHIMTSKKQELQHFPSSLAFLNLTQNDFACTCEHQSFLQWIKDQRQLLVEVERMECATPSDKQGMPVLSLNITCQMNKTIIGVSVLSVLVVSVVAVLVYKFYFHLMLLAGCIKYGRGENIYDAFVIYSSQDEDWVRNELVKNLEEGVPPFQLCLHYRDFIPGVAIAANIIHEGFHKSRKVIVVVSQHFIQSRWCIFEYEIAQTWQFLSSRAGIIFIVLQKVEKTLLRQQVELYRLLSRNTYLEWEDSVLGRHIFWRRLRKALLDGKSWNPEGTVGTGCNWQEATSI

effect of a mutation on the interaction | Variant
disrupting interaction | F126A
disrupting interaction | H155A
